Reference: patent US20230330251A1, “METHODS FOR TREATING CANCERS WITH ANTIBODY DRUG CONJUGATES (ADC) THAT BIND TO 191P4D12 PROTEINS” (AGENSYS, INC., priority 2020, published 2023)

Key:
Type in all cases: in vivo, human
[1] = system: subjects with previously treated locally advanced or metastatic urothelial cancer; assay: EV-301: duration of response (DOR) per RECIST V1.1
Description: Duration of Response (DOR) is defined as the time from the date of the first response CR/PR per RECIST V1.1 (whichever is first recorded) that is subsequently confirmed as assessed by investigator to the date of radiological progression or date of death for subjects who achieved CR or PR. If a subject has not progressed or died, the subject was censored at the date of last radiological assessment or at the date of first CR/PR if no other post-baseline radiological assessment is available after the first CR/PR. The median DOR was estimated using the Kaplan-Meier method and is reported along with the corresponding 95% confidence interval by treatment arm.

[2] = Phase 1 study of EV: pharmacokinetics
Description: Based on pharmacokinetic data from the phase 1 study, the half-life of EV is ˜1-2 days. […] Minimal (<50%) intra-cycle accumulation of MMAE was observed. It is anticipated that the dosing schedule in the study will maintain ADC exposures over each 28-day cycle, contributing to a favorable balance of activity and safety, as observed in the phase 1 trial.

[3] = system: patients with previously treated locally advanced or metastatic urothelial carcinoma (la/mUC) with poor prognostic factors; assay: EV-301 hard-to-treat subgroups: safety and tolerability
Protocol: Subgroup analyses were prespecified for the primary endpoint of OS and secondary endpoints of investigator-assessed progression-free survival (PFS) and overall response rate (ORR) per RECIST v1.1. Kaplan-Meier analyses compared OS and PFS between treatments for selected hard-to-treat subgroups as follows: age ≥65 years, presence of liver metastasis, primary upper tract disease, and checkpoint inhibitor (CPI) nonresponse. ORR and safety were also evaluated within subgroups. The Cox proportional hazards model was used to estimate hazard ratios. The Cochran-Mantel-Haenszel test was used to compare response and disease control rates between groups.

[4] = patients with confirmed complete or partial response
[5] = Aged ≥65 Years, N = 190 EV, 188 SC
[6] = Nonresponsive to Prior PD-1/L1 Inhibitor, N = 202 EV, 202 SC
[7] = Presence of Liver Metastasis, N = 90 EV, 92 SC
[8] = Primary Upper Tract Disease, N = 96 EV, 102 SC

For enfortumab vedotin, the “median duration of response” value ([1]; patients who had a complete or partial response) was 7.39 months, the “Duration of Response (DOR), Events, %” value [1, 4] was “(53.8%)” and the “Duration of Response, At 6 months” value [1, 4] was 53.8%. For the same substance, the “Duration of Response, At 12 months” value [1, 4] was 27.7%, the “Median of DOR” value [1, 4] was 7.39 Months and the “intra-cycle accumulation of ADC” value ([2]; dosing on Days 1, 8 and 15 of every 28-day cycle, any dose level) was less than 30%. For the same substance, the half-life ([2]; phase 1 study) was 24 to 48 h, the “Grade ≥3 TRAE: Anemia, %” value [3, 5] was 2.6% and the “Grade ≥3 TRAE: Decreased neutrophil count, %” value [3, 5] was 7.4%. For the same substance, the “Grade ≥3 TRAE: Decreased white blood cell count, %” value [3, 5] was 2.1%, the “Grade ≥3 TRAE: Fatigue, %” value [3, 5] was 7.9% and the “Grade ≥3 TRAE: Febrile neutropenia, %” value [3, 5] was 1.1%. The “Grade ≥3 TRAE: Maculopapular rash, %” value [3, 5] was 7.4%, the “Grade ≥3 TRAE: Neutropenia, %” value [3, 5] was 3.7% and the “Grade ≥3 TRAE: Anemia, %” value [3, 6] was 3.0%. For the same substance, the “Grade ≥3 TRAE: Decreased neutrophil count, %” value [3, 6] was 5.0%, the “Grade ≥3 TRAE: Decreased white blood cell count, %” value [3, 6] was 1.0% and the “Grade ≥3 TRAE: Fatigue, %” value [3, 6] was 5.0%. For the same substance, the “Grade ≥3 TRAE: Febrile neutropenia, %” value [3, 6] was 1.0%, the “Grade ≥3 TRAE: Maculopapular rash, %” value [3, 6] was 9.4% and the “Grade ≥3 TRAE: Neutropenia, %” value [3, 6] was 4.5%. For the same substance, the “Grade ≥3 TRAE: Anemia, %” value [3, 7] was 3.3%, the “Grade ≥3 TRAE: Decreased neutrophil count, %” value [3, 7] was 5.6% and the “Grade ≥3 TRAE: Fatigue, %” value [3, 7] was 5.6%. For the same substance, the “Grade ≥3 TRAE: Febrile neutropenia, %” value [3, 7] was 2.2%, the “Grade ≥3 TRAE: Maculopapular rash, %” value [3, 7] was 8.9% and the “Grade ≥3 TRAE: Neutropenia, %” value [3, 7] was 5.6%. For the same substance, the “Grade ≥3 TRAE: Anemia, %” value [3, 8] was 6.3%, the “Grade ≥3 TRAE: Decreased neutrophil count, %” value [3, 8] was 9.4% and the “Grade ≥3 TRAE: Decreased white blood cell count, %” value [3, 8] was 1.0%. For the same substance, the “Grade ≥3 TRAE: Fatigue, %” value [3, 8] was 9.4%, the “Grade ≥3 TRAE: Febrile neutropenia, %” value [3, 8] was 2.1% and the “Grade ≥3 TRAE: Maculopapular rash, %” value [3, 8] was 10.4%. For the same substance, the “Grade ≥3 TRAE: Neutropenia, %” value [3, 8] was 6.3%, the “grade ≥3 treatment-related AEs adjusted for treatment exposure, EV versus SC” value ([3]; across all four hard-to-treat subgroups) was “less frequently” and the “overall rate of AE's” value ([3]; patients non-responsive to prior treatment with PD-1/L1 inhibitors) was 97.5%. For the same substance, the “overall rate of AE's” value ([3]; patients with liver metastasis) was 97.8%, the “overall rate of AE's” value ([3]; patients with primary upper tract disease) was 99.0% and the “overall rate of AE's” value ([3]; patients ≥65 years of age) was 97.4%.
